This note sets out measurements from US20120065123A1 (published 2012).

Where no end group is shown, it is not given here.

The target of experiment [1] is T1, pooled human transferrin (Sigma), biotinylated (human, UniProt P02787 20-698, biotinylated at amines with NHS-LC-LC-Biotin).
T1 construct: Captured on Neutravidin on a CM5 chip (Biacore A-100)
The experiment can be described thus: SPR Biacore A-100, purified peptide at several concentrations. The source says:
A Biacore A-100 Surface Plasmon Resonance (SPR) system was used to measure the binding response of each peptide to several different target proteins immobilized on a gold surface. The A-100 has four different flow cells and within each flow cell are five addressable spots. Therefore four different proteins and a negative control reference can be used per flow cell. Depending on the purpose of the assay, up to 16 different target proteins can be immobilized on a single SPR chip. The instrument is equipped to evaluate up to 10 384-well plates unattended and can process approximately four 384-well plates per day. Sensorgrams are collected from each immobilized protein, so a binding profile for each analyte versus each of the protein targets is generated for each injection. Target proteins were immobilized using a biotin capture approach in which a CM5 chip was activated using standard amine coupling chemistry and Neutravidin was covalently coupled to the chip. Each biotinylated protein was injected over a single spot and the amount of protein captured was measured.
(In SPR one partner is held on a chip, and binding of the other changes the refractive index at the surface.)

Experiment [2] addresses AKT1 (Homo sapiens (Human), UniProt P31749 1-480). Put plainly: SPR.
Experiment [3] concerns the target T2, transferrin.
T2 construct: Alexa 555 labelled on arrays, amine-coupled to the chip in SPR, on beads in mRNA display; also called TRF; transferring
Put plainly: SPR.

In experiment [4] the target is T3, CHAF1B (human, UniProt Q13112).
T3 construct: GST fusion, feature of the Invitrogen Protoarray Human Protein Microarray v; 4.0
The experiment can be described thus: Invitrogen Protoarray Human Protein Microarray v. 4.0; biotinylated synbody detected with fluorescently labelled streptavidin; fluorescence intensity above background. The procedure: (§1) Application of the synbodies to the microarray was performed in accordance with manufacturer instructions: (see ProtoArray Human Protein Microarray, Invitrogen, Catalog no. PAH052401, Version B, 15 Dec. 2006, 25-0970, Users Manual.) After blocking the array with 1% BSA/PBS/0.1% Tween for 1 hour at 4C with gentle shaking, 120 μl of probing buffer (1×PBS, 5 mM mgCl2, 0.5 mM DTT, 0.05% Triton X-100, 5% glycerol, 1% BSA) with synbody was applied to the array. The prescribed cover slip was placed over the array and adjusted to remove air bubbles. The array was incubated in a 50 ml conical tube, printed side up, for 1.5 hours at 4C without shaking. The array was then removed from the conical tube inserted diagonally into the array chamber, kept on ice. 8 ml probing buffer was added to the chamber wall. The cover slip was removed and the array was incubated in probing buffer for 1 minute on ice. The probing buffer was decanted and drained. Two further washings were performed adding 8 ml probing buffer, incubating on ice for 1 minute, and decanting and draining. 5 nM fluorescently labeled streptavidin diluted in 6 ml probing buffer was incubated on the array for 30 minutes on ice in the dark, after which the solution was decanted and drained. Three wash steps were performed, each by adding 8 ml probing buffer, incubating for 1 minute on ice, decanting, and draining. The array was removed from the chamber, centrifuged at 800×g for 5 minutes at room temperature. The array was dried in the dark for 60 minutes at room temperature, after which it was scanned using a fluorescent microarray scanner and data was taken and analyzed.

In experiment [5] the target is T4, ANXA1 (human, UniProt P04083).
T4 construct: GST fusion, feature of the Invitrogen Protoarray Human Protein Microarray v; 4.0
T4 sequence (array feature, looked up): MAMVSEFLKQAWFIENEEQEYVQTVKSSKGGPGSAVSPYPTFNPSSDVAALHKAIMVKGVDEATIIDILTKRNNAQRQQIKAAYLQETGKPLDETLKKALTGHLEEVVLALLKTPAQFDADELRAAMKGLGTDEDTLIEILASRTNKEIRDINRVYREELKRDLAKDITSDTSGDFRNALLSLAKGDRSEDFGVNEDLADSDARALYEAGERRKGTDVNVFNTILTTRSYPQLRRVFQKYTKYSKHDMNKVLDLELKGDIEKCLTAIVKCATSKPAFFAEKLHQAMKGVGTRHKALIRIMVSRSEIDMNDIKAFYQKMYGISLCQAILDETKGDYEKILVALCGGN
The description is as above. The procedure: as §1

Experiment [6] has as its target T5, ROCK2 (human, UniProt O75116).
T5 construct: GST fusion, feature of the Invitrogen Protoarray Human Protein Microarray v; 4.0
The experiment is described as above. The procedure:
as §1

The target in experiment [7] is T6, LACRT (human, UniProt Q9GZZ8).
T6 construct: GST fusion, feature of the Invitrogen Protoarray Human Protein Microarray v; 4.0
T6 sequence (array feature, looked up): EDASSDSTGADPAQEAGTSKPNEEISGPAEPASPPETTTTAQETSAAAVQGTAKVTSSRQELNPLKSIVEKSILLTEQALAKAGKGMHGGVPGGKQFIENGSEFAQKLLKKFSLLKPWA
The experiment is described as above. The procedure: as §1

In experiment [8] the target is T7, PTK2 (human, UniProt Q05397).
T7 construct: GST fusion, feature of the Invitrogen Protoarray Human Protein Microarray v; 4.0
Described as above. The procedure:
as §1

In experiment [9] the target is T8, ACTC (human, UniProt P68032).
T8 construct: GST fusion, feature of the Invitrogen Protoarray Human Protein Microarray v; 4.0
Described as above. The procedure:
as §1

Experiment [10] deals with T9, Gal80 (UniProt P04387 1-435, limits assumed).
T9 construct: Cy3/Cy5 or otherwise fluorescently labelled on arrays; immobilised in SPR and ELISA
T9 sequence (looked up): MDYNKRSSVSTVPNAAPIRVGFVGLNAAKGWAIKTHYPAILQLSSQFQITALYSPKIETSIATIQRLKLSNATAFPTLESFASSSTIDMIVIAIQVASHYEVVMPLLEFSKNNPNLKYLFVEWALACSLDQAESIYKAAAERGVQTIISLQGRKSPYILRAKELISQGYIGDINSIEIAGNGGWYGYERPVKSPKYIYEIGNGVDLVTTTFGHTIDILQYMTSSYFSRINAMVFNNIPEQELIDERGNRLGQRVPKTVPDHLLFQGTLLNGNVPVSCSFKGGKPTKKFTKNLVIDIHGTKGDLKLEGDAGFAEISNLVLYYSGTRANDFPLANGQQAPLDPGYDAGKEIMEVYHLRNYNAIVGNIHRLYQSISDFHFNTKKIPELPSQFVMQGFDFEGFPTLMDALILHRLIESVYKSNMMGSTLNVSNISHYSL
The experiment can be described thus: SPR, synbody in solution, surface-bound Gal80; SPR, synbody in solution, surface-bound Gal80.

The target in experiment [11] is T9, Gal80. The experiment can be described thus: gel shift assay; gel shift assay. For orientation: Mobility shift assays separate free from complexed probe on a gel.
Experiment [12] deals with T10, Tumor Necrosis Factor-alpha (TNF-α).
T10 construct: also called TNF-a
Put plainly: SPR equilibrium, Biacore A100, TNF-α captured on chip. As to the method: Point-mutant libraries were prepared in 96-well stock plates From the stock plate, peptides were diluted to 50 μM concentration in Biacore HBS-EP buffer (GE Healthcare, Piscataway, N.J.) containing 1 mg/ml carboxymethyl-dextran (Sigma-Aldrich, St. Louis, Mo.) to reduce non-specific binding to the CM-5 SPR chip surface. […] Spot 3 contained only immobilized neutravidin and served as a reference spot.
Purified point-mutant affinities were measured on the Biacore A100 using SPR equilibrium binding response across a series of peptide concentrations on an SPR chip with TNF-α captured as described above.

For experiment [13] the target is unchanged. The experiment can be described thus: SPR kinetic fits of sensorgrams.

T10 sequence (P01375 77-233): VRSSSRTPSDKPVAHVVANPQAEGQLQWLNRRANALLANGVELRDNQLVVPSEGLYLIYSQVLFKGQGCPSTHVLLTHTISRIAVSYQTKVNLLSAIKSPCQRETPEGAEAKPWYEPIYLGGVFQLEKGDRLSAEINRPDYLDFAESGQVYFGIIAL
T2 sequence (P02787 20-698): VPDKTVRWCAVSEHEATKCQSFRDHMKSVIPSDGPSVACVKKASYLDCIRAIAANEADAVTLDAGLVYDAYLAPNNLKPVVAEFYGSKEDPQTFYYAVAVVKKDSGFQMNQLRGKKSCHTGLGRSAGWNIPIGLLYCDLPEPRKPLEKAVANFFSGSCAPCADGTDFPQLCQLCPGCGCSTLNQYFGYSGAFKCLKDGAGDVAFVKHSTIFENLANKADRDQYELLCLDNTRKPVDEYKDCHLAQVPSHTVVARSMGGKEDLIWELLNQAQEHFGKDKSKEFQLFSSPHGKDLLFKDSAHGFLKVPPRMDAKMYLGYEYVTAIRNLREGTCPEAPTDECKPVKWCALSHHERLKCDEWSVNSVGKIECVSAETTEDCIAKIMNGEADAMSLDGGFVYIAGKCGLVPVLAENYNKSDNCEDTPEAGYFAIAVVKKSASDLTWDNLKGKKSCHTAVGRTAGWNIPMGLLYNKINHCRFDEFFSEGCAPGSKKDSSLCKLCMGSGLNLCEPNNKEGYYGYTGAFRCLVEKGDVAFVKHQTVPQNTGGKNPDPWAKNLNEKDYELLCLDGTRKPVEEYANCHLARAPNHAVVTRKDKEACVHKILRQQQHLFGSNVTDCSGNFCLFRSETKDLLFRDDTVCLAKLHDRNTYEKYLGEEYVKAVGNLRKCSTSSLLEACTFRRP
T1 sequence (P02787 20-698 limits assumed): as the sequence (P02787 20-698) above
T5 sequence (O75116 1-552 limits assumed): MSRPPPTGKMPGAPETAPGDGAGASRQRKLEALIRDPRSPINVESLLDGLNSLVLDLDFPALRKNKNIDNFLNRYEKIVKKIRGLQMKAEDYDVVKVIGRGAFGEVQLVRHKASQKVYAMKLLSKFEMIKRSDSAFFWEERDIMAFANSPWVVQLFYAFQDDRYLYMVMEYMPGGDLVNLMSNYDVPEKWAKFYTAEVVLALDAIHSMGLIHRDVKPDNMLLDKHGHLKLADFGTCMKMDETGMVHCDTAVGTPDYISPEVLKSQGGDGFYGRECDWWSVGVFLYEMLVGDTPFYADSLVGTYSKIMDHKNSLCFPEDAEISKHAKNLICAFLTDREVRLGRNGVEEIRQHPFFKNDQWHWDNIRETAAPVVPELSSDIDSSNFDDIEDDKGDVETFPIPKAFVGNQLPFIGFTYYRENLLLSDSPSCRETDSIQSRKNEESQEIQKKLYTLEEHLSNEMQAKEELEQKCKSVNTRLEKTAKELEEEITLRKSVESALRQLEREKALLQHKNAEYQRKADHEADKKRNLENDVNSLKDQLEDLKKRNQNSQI
T3 sequence (Q13112 whole entry, the tested form may be a part): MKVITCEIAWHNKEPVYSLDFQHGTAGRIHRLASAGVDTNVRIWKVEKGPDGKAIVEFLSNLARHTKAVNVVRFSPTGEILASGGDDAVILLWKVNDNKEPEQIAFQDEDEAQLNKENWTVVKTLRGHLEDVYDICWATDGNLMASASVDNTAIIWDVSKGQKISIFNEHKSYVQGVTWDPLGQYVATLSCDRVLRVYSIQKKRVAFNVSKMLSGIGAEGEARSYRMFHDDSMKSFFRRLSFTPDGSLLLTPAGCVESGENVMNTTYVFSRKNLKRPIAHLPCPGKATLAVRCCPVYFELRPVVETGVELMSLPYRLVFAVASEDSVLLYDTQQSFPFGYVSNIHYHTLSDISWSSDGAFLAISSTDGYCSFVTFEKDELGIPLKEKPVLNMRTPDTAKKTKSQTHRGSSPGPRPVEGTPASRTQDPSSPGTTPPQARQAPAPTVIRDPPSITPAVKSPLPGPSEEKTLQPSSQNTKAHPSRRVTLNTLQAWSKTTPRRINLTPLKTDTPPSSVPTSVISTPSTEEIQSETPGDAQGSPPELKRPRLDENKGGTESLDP
T7 sequence (Q05397 whole entry, the tested form may be a part): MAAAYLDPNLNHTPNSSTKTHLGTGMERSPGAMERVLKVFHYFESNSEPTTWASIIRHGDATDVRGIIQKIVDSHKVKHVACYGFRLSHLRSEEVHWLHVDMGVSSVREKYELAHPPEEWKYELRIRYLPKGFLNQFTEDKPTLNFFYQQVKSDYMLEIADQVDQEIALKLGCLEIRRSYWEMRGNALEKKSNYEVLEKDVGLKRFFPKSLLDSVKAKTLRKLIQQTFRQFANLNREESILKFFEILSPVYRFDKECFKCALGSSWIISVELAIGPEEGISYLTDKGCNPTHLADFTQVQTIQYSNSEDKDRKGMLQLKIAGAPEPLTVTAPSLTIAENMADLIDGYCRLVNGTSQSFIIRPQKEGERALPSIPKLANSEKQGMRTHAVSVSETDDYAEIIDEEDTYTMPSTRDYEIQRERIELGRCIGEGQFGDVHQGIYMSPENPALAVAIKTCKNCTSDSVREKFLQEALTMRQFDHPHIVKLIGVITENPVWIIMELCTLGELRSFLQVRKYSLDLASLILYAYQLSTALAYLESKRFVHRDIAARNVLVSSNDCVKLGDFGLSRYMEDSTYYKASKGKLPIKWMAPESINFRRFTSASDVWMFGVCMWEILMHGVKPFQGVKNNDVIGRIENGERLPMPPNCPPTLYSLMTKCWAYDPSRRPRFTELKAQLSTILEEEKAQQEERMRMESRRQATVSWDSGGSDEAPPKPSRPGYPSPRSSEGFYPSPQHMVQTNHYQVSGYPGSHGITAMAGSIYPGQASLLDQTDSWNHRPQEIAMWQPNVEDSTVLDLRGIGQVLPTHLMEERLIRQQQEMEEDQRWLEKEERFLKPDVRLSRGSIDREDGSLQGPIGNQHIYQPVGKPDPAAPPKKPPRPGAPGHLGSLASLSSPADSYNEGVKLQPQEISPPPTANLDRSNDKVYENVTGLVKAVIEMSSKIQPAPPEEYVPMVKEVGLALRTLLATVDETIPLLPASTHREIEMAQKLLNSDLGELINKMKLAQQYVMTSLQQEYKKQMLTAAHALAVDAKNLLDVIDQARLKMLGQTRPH
Sequence of AKT1 (P31749 whole entry): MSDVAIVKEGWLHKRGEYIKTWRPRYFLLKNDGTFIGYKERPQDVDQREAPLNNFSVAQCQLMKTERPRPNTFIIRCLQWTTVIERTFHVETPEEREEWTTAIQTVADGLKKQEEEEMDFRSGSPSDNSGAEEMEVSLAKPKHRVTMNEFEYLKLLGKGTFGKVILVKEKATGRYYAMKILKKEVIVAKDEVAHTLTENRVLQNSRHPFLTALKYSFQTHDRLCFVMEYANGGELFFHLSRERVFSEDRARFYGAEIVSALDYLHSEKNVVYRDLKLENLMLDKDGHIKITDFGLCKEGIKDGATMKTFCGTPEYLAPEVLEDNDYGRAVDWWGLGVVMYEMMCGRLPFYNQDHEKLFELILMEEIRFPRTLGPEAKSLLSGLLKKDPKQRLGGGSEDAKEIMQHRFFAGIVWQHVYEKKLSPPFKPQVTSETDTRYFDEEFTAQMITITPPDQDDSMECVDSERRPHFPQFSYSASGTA

B1: TRF101 (peptide)
peptide: ARDLLIQKNSGQDVDHRGSC
notes: Screened unpurified, then resynthesised and HPLC purified for the KD
B1 displayed a Kd in experiment [1] of 78900 nM.

B2: SYN23-26 (designed binder)
peptide 1: FRGWAHIFFGPHVIYRGGSG
peptide 2: AHKVVPQRQIRHAYNRYGSG
modifications: also: linker at chain A 20 at chain B 20 to a chain's C-terminus via Lys-Cys(biotin)
notes: Two 20-mers on the alpha and epsilon amines of a lysine, about 1 nm apart; thiol of the cysteine biotinylated for array detection; also called biotinylated anti-TRF synbody
In the case of B2, the Kd is around 1 nM in [2] and around 141 nM in [3]. Moreover, the binding result in experiment [4] is “binds”; in experiment [5], “binds”; in [6], “no binding”; in experiment [7], “no binding”; in experiment [8], “no binding”; in experiment [9], “binds”.

B3: linker-optimized BP1/BP2 DNA-linked synbody (BP1 on the template strand, BP2 at position 13 from the 3' end of the variable strand) (designed binder)
peptide 1: GTEKGTSGWLKTGSC
peptide 2: EGEWTEGKLSLRGSC
modifications: not fully specified (some residues, bridges); also: two DNA strands, each joined to a peptide C-terminal Cys through SMCC, double-stranded DNA linker
notes: Two peptides held by a double-stranded DNA linker; for ELISA a third psoralen-crosslinked strand carried biotin and streptavidin-HRP; also called gal80 synbody; the linker-optimized synbody
Regarding B3, the Kd is 91 nM in experiment [10] and around 100 nM in experiment [11].

In experiment [12], FERDPLMMPWSFLQSRQGSC [TNF1 lead peptide] showed a Kd of 160000 nM. In experiment [13], this molecule returned a dissociation rate constant (koff) of 1.6 s⁻¹.

As usually defined, the Kd is the equilibrium constant for the complex coming apart. As usually defined, the koff is the first-order rate constant of dissociation.
